Here are results for one protein from article PMC9800579, “Interplay of membrane crosslinking and curvature induction by annexins” (Scientific Reports, 2022).

This series concerns the molecule itself. In words: atomic force microscopy; alternating contact mode on DOPC/DOPS (1:1) supported lipid bilayers on mica, 10 mM TRIS pH 7.4, 140 mM NaCl, 2 mM Ca2+; 40 nM ANXA4 added with 40 nM ANXA1-GFP or ANXA2-GFP; 250 nm x 250 nm scans of the lower (ANXA4) domains, Fourier transform.

B1: annexin A4 (natural protein, UniProt P09525 1-319, looked up)
chain: MATKGGTVKAASGFNAMEDAQTLRKAMKGLGTDEDAIISVLAYRNTAQRQEIRTAYKSTIGRDLIDDLKSELSGNFEQVIVGMMTPTVLYDVQELRRAMKGAGTDEGCLIEILASRTPEEIRRISQTYQQQYGRSLEDDIRSDTSFMFQRVLVSLSAGGRDEGNYLDDALVRQDAQDLYEAGEKKWGTDEVKFLTVLCSRNRNHLLHVFDEYKRISQKDIEQSIKSETSGSFEDALLAIVKCMRNKSAYFAEKLYKSMKGLGTDDNTLIRVMVSRAEIDMLDIRAHFKRLYGKSLYSFIKGDTSGDYRKVLLVLCGGDD
notes: annexin A4 (ANXA4), unlabelled recombinant protein from a PCR-amplified cDNA in pETM11-SUMO3; the introduction gives 320 amino acids for ANXA4 (cited); also called ANXA4; recombinant ANXA4; source: E. coli BL21 (DE3), purified (Ni-NTA IMAC, Superdex 200 SEC); not shown: 6xHis, N-terminal, cleaved; SUMO3 domain, N-terminal, cleaved
The term stoichiometry N denotes a count of units in the complex or per binding partner. For B1, the “stoichiometry N” value amounted to 3.
